# Data as given in patent US20060110774A1.
# Target: rabbit anti-GRK polyclonal antibody
# Test: competitive inhibition ELISA: pAb pre-incubated with pGRK, then added to immobilised rGRK
binder,measurement,value
NSQSYYNGDPFITKDC [synthetic peptide pGRK (…) derived from human Granzyme K],concentration giving complete inhibition of antibody binding,10 ng/µL
